According to article PMC11210195 (Frontiers in Immunology, 2024):

What was measured:
[1] = target: the molecule itself; assay: SEC-MALS; TRIM21-CC-PS alone, 1 mg/mL, 50 µg injected, Superdex200 Increase 10/300 GL, PBS pH 7.4
cytokine-Fc Fusion Y436A [2] = target: cytokine-Fc Fusion Y436A (human); assay: SPR; cytokine-Fc Fusion constructs captured via anti-PGLALA F(ab')2 fragment at low density; TRIM21-CC-PS injected; 25°C, HBS-EP+; apparent (avidity) constants; details: both partners purified
cytokine-Fc Fusion Y436A [3] = target: cytokine-Fc Fusion Y436A (human); assay: SPR; cytokine-Fc Fusion constructs captured via anti-PGLALA F(ab')2 fragment (35-40 RU); PRYSPRY injected, two-fold series; 25°C, HBS-EP+ pH 7.4; 1:1 fit; details: both partners purified

Binder	stoichiometry N [1]	avidity enhancement (K_(D,AFFINITY)/K_(D,AVIDITY)) (cytokine-Fc Fusion Y436A [2])	fold weaker against the WT avidity (cytokine-Fc Fusion Y436A [2])	fold change of off rate against WT (cytokine-Fc Fusion Y436A [3])	fold change of on rate against WT (cytokine-Fc Fusion Y436A [3])	fold decrease of affinity against mAb1 Fc WT (cytokine-Fc Fusion Y436A [3])	t1/2 of dissociation (cytokine-Fc Fusion Y436A [3])
TRIM21-coiled-coil-PRYSPRY (TRIM21-CC-PS) (domain or fragment, human, UniProt P19474-1 128-475, looked up, biotinylated where it was captured via monovalent streptavidin, human TRIM21 (Ro52, RNF81), coiled-coil and PRYSPRY domains, amino acids 128 to 475 of isoform 1; also called PRYSPRY-coiled-coil variant; source: E. coli BL21 DE3, purified (Ni-NTA, Superdex S-200 gel filtration) by Proteros Biostructures; not shown: His-Avi-Tag (via a (4GS)1 linker), C-terminal, kept) LEEAAQEYQEKLQVALGELRRKQELAEKLEVEIAIKRADWKKTVETQKSRIHAEFVQQKNFLVEEEQRQLQELEKDEREQLRILGEKEAKLAQQSQALQELISELDRRCHSSALELLQEVIIVLERSESWNLKDLDITSPELRSVCHVPGLKKMLRTCAVHITLDPDTANPWLILSEDRRQVRLGDTQQSIPGNEERFDSYPMVLGAQHFHSGKHYWEVDVTGKEAWDLGVCRDSVRRKGHFLLSSKSGFWTIWLWNKQKYEAGTYPQTPLHLQVPPCQVGIFLDYEAGMVSFYNITDHGSLIYSFSECAFTGPLRPFFSPGFNDGGKNTAPLTLCPLNIGSQGSTDY	2	14 fold	766 fold	–	–	–	–
TRIM21 PRYSPRY domain (domain or fragment, human, UniProt P19474-1 277-475, looked up, biotinylated where it was captured via monovalent streptavidin, human TRIM21 (Ro52, RNF81), PRYSPRY domain, amino acids 277 to 475 of isoform 1; also called PS; TRIM21 PRYSPRY variant; source: E. coli BL21 DE3, purified (Ni-NTA, Superdex S-200 gel filtration) by Proteros Biostructures; not shown: His-Avi-Tag (via a (4GS)1 linker), C-terminal, kept) GLKKMLRTCAVHITLDPDTANPWLILSEDRRQVRLGDTQQSIPGNEERFDSYPMVLGAQHFHSGKHYWEVDVTGKEAWDLGVCRDSVRRKGHFLLSSKSGFWTIWLWNKQKYEAGTYPQTPLHLQVPPCQVGIFLDYEAGMVSFYNITDHGSLIYSFSECAFTGPLRPFFSPGFNDGGKNTAPLTLCPLNIGSQGSTDY	–	–	–	23 fold	8 fold	180 fold	0.3 s
